A word on the stoichiometry N: it is a count of units in the complex or per binding partner.

The assay concerns the target FvCamlp (calmodulin like EF hand protein of Flammulina velutipes), freed of the GST tag (Flammulina velutipes). Briefly: SEC; Superdex 200, 25 mM Tris-HCl pH 7.5, 150 mM NaCl, 4 °C, flow 0.4 ml/min; in absence (5.0 mM EGTA) and presence of Ca2+ (5.0 mM); monomer to dimer. In general terms: Size exclusion chromatography separates by hydrodynamic size, large species first.

On to “FvCamlp (calmodulin like EF hand protein of Flammulina velutipes), freed of the GST tag (natural protein)”, for which the stoichiometry N came to 2.

Values taken from article PMC4600981.
